{
  "source": "paper PMC11423568",
  "about": "“Functional investigation of the two ClpPs and three ClpXs in Myxococcus xanthus DK1622” (mSphere, 2024)",
  "binders": {"B1": {"name": "Myxococcus xanthus DK1622 ClpP1 (MXAN_2014), His- or MBP-tagged, for pulldown (enzyme)", "chain": "not shown", "notes": "ClpP1, peptidase subunit of ClpXP, Myxococcus xanthus DK1622, locus MXAN_2014; source: E. coli BL21, purified (Ni Sepharose for His tag, maltose elution for MBP)"}, "B2": {"name": "Myxococcus xanthus DK1622 ClpP1 (MXAN_2014), no tag (enzyme)", "chain": "not shown", "notes": "ClpP1, peptidase subunit of ClpXP, Myxococcus xanthus DK1622, locus MXAN_2014; also called nonlabeled ClpP1; nontagged ClpP1; source: E. coli BL21, purified; copies: 14"}},
  "key": {"[1]": {"molecular_target": "T1, Myxococcus xanthus DK1622 trigger factor Tig (MXAN_2013), His- or MBP-tagged, for pulldown (Myxococcus xanthus DK1622, UniProt Q1DAT1 1-425)", "T1 construct": "ribosome-associated molecular chaperone trigger factor, Myxococcus xanthus DK1622, locus MXAN_2013; source: E. coli BL21, purified (Ni Sepharose for His tag, maltose elution for MBP)", "T1 sequence (looked up)": "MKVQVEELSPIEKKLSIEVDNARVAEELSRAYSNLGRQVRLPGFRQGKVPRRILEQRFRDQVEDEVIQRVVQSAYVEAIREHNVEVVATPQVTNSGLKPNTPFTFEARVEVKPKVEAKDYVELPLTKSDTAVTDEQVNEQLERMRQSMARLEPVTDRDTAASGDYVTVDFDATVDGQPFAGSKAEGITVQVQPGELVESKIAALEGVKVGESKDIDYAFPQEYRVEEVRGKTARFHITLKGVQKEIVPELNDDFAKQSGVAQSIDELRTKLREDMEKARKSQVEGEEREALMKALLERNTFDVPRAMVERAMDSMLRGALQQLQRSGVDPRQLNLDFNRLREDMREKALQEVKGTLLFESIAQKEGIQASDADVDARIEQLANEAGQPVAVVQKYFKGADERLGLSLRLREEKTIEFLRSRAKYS", "experiment": "pull-down; purified His-tagged and MBP-tagged proteins mixed, room temperature 30 min, passed through Ni-NTA resin (His-tagged protein held), washed with suspension buffer, eluted with 250 mM imidazole; MBP mixed with His-labeled protein as negative control", "conditions": "both partners purified"}, "[2]": {"molecular_target": "the molecule itself", "experiment": "cross-linking; 20 µM ClpP1 or ClpP2 in 20 mM HEPES, 100 mM NaCl, 1 mM EDTA, pH 7.5, 25°C; glutaraldehyde (0.1% in methods, 1% in legend) 10 min, quenched with 200 mM Tris-HCl pH 7.5; SDS-PAGE"}},
  "data": [
    {"binder": "B1", "values": [
      {"measurement": "binding result", "setting": "[1]", "value": "binds"}
    ]},
    {"binder": "B2", "values": [
      {"measurement": "stoichiometry N", "setting": "[2]", "value": 14}
    ]}
  ]
}
